Target: F-actin (filamentous rabbit skeletal muscle actin) (rabbit), P68135
Assay: co-sedimentation
Settings: remark: other sources report otherwise

- Kd: 19.2 µM
- stoichiometry N: 1
B1: utrophin actin binding domain, utrophin residues 1-261 (UTR261), wildtype, P46939 1-261 (domain or fragment)
chain: MAKYGEHEASPDNGQNEFSDIIKSRSDEHNDVQKKTFTKWINARFSKSGKPPINDMFTDLKDGRKLLDLLEGLTGTSLPKERGSTRVHALNNVNRVLQVLHQNNVELVNIGGTDIVDGNHKLTLGLLWSIILHWQVKDVMKDVMSDLQQTNSEKILLSWVRQTTRPYSQVNVLNFTTSWTDGLAFNAVLHRHKPDLFSWDKVVKMSPIERLEHAFSKAQTYLGIEKLLDPEDVAVQLPDKKSIIMYLTSLFEVLPQQVTID

— publication PMC3642092
